Test results taken from patent US20240279281A1, “Peptide Inhibitors of Interleukin-23 Receptor” (Janssen Pharmaceutica NV, priority 2023, published 2024).
Starred links: 1 amine or outer side, 2 acyl side, 3 side chain; linkers in the order of their positions; H or OH if unused. Positions of bridges follow the written chain, without caps; N, C: chain ends. Non-standard residues stand in square brackets, D forms with d. Groups on a side chain read outwards from the residue. Primed or numbered codes have the meaning given here. 2Nal6(Ph4(NMorph)) = 2-amino-3-(6-(4-morpholinophenyl)naphthalen-2-yl)propanoic acid, O=C([C@H](Cc1ccc2cc(-c3ccc(N4CCOCC4)cc3)ccc2c1)N[*:1])[*:2]; TMAPF = 5-(4-(2-amino-2-carboxyethyl)phenoxy)-N,N,N-trimethylpentan-1-aminium, C[N+](C)(C)CCCCCOc1ccc(C[C@H](N[*:1])C(=O)[*:2])cc1; AEF(G) = 2-amino-3-(4-(2-guanidinoethoxy)phenyl)propanoic acid, N=C(N)NCCOc1ccc(C[C@H](N[*:1])C(=O)[*:2])cc1; 6Br2Nal = 2-amino-3-(6-bromonaphthalen-2-yl)propanoic acid, O=C([C@H](Cc1ccc2cc(Br)ccc2c1)N[*:1])[*:2]; 6F2Nal = 2-amino-3-(6-fluoronaphthalen-2-yl)propanoic acid, O=C([C@H](Cc1ccc2cc(F)ccc2c1)N[*:1])[*:2]; Trp(7-(3-AcNH-Ph)) = CC(=O)Nc1cccc(-c2cccc3c(C[C@H](N)C(=O)O)c[nH]c23)c1; PEG2NMePEG2NMegENMeCl8Tetrazole = not defined here; 2Nal(6-OH) = N[C@@H](Cc1ccc2cc(O)ccc2c1)C(=O)O; Trp(7-Me) = Cc1cccc2c(C[C@H](N)C(=O)O)c[nH]c12; 3Pal(5-Me) = Cc1cncc(C[C@H](N)C(=O)O)c1; γGlu = O=C(O)[C@H](CCC(=O)[*:2])N[*:1]; AEF = NCCOc1ccc(C[C@H](N)C(=O)O)cc1; 3Pal = N[C@@H](Cc1cccnc1)C(=O)O; NMecPEG3a = not defined here; Pen = CC(C)(S)[C@H](N)C(=O)O; PEG2′ = not defined here; Thp = NC1(C(=O)O)CCOCC1; Sar = CNCC(=O)O

T1: interleukin-23 receptor (IL-23R) (UniProt Q5VWK5 24-629, limits assumed)
T1 sequence (looked up): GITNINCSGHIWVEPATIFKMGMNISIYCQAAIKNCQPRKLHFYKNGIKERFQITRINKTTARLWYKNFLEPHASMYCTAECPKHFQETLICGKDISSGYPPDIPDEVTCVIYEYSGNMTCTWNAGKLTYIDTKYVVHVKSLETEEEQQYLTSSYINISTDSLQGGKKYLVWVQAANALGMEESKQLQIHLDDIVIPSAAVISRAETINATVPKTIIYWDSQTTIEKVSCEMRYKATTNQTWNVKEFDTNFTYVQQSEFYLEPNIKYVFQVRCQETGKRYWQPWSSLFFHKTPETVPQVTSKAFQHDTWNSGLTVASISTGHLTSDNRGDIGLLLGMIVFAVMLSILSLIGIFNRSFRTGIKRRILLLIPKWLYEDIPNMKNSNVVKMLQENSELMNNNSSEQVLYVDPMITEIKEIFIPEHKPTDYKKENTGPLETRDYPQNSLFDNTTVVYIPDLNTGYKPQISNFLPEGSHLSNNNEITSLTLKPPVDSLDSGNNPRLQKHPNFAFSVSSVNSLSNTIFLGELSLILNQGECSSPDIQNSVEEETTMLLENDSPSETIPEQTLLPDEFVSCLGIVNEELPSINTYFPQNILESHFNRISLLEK

T2: interleukin-23 receptor (IL-23R) (UniProt Q5VWK5 24-629, limits assumed)
T2 sequence (looked up): T1 sequence (looked up)

B1: SEQ ID NO: 319 (peptide)
peptide: cPEG3aCO-[Pen]NT[Trp(7-Me)]K(NMecPEG3a)[Pen][AEF][2Nal(6-OH)][Thp]EN[3Pal][Sar]-NH2
modifications: disulfide 1-6 (inferred); not fully specified; printed as cPEG3aCO-Pen(3)-N-T-7MeW-K(NMecPEG3a)-Pen(3)-AEF-6OH2Nal-THP-E-N-3Pya-Sar-CONH2; reading uncertain
B2: SEQ ID NO: 319 (peptide)
peptide: cPEG3aCO-[Pen]NT[Trp(7-Me)]K(NMecPEG3a)[Pen][AEF][2Nal(6-OH)][Thp]EN[3Pal][Sar]-NH2
modifications: disulfide 1-6 (inferred); not fully specified; printed as cPEG3aCO-Pen(3)-N-T-7MeW-K(NMecPEG3a)-Pen(3)-AEF-6OH2Nal-THP-E-N-3Pya-Sar-CONH2; reading uncertain
B3: SEQ ID NO: 349 (peptide)
peptide: Ac-X[Pen]NT[Trp(7-Me)]K(Ac)[Pen][AEF][2Nal(6-OH)][Thp]EN[3Pal][Sar]-NH2
modifications: disulfide 2-7 (inferred); not fully specified (residue 1); printed as MeCO-k(d)-Pen(3)-N-T-7MeW-K(Ac)-Pen(3)-AEF-6OH2Nal-THP-E-N-3Pya-Sar-CONH2
B4: SEQ ID NO: 349 (peptide)
peptide: Ac-X[Pen]NT[Trp(7-Me)]K(Ac)[Pen][AEF][2Nal(6-OH)][Thp]EN[3Pal][Sar]-NH2
modifications: disulfide 2-7 (inferred); not fully specified (residue 1); printed as MeCO-k(d)-Pen(3)-N-T-7MeW-K(Ac)-Pen(3)-AEF-6OH2Nal-THP-E-N-3Pya-Sar-CONH2
B5: SEQ ID NO: 11 (peptide)
peptide: XXNTXXXXXXENXX
modifications: MeCO-k(Me)3-Pen(3)-N-T-7(3NAcPh)W-K(Ac)-Pen(3)-AEF(G)-6OH2Nal-THP-E-N-5MePyridinAla-Sar-CONH2

Legend:
[1] = molecular target: T1, interleukin-23 receptor (IL-23R); test: cell-based or functional assay
[2] = molecular target: T2, interleukin-23 receptor (IL-23R); test: cell-based or functional assay; remark: listed apart in the source

| Binder | IL23R Reporter Assay IC50 [1] | PBMC pSTAT3 IC50 [2] |
| --- | --- | --- |
| B1 | < 0.01 µM |  |
| B2 |  | < 0.1 nM |
| B3 | < 0.01 µM |  |
| B4 |  | < 0.01 nM |
| Ac-[Pen]NT[Trp(7-Me)]K(Ac)[Pen][AEF][2Nal(6-OH)][Thp]EN[3Pal][Sar]-NH2 (disulfide 1-6 (inferred)) [SEQ ID NO: 428, listing 1 of 2 here] | < 0.01 µM |  |
| Ac-[dR][Pen]NT[Trp(7-(3-AcNH-Ph))]K(Ac)[Pen][AEF(G)][2Nal(6-OH)][Thp]EN[3Pal(5-Me)][Sar]-NH2 (disulfide 2-7 (inferred)) [SEQ ID NO: 15, listing 1 of 2 here] | < 0.01 µM |  |
| Ac-[dR][Pen]NT[Trp(7-Me)]K(Ac)[Pen][AEF][6Br2Nal][Thp]EN[Thp]-NH2 (disulfide 2-7 (inferred)) [SEQ ID NO: 444, listing 1 of 2 here] |  | > 1 nM |
| Ac-[dR][Pen]NT[Trp(7-(3-AcNH-Ph))]K(Ac)[Pen][AEF][2Nal(6-OH)][Thp]EN[3Pal][Sar]-NH2 (disulfide 2-7 (inferred)) [SEQ ID NO: 287, listing 1 of 2 here] |  | < 0.1 nM |
| Ac-[dR][Pen]NT[Trp(7-Me)]K(Ac)[Pen][AEF][2Nal(6-OH)][Thp]EN[3Pal][Sar]-NH2 (disulfide 2-7 (inferred)) [SEQ ID NO: 442, listing 1 of 2 here] |  | < 0.01 nM |
| Ac-[dR][Pen]NT[Trp(7-Me)]K(Ac)[Pen][TMAPF][2Nal(6-OH)][Thp]EN[3Pal][Sar]-NH2 (disulfide 2-7 (inferred)) [SEQ ID NO: 59, listing 1 of 2 here] |  | < 0.1 nM |
| Ac-[dR][Pen]NT[Trp(7-Me)]K(Ac)[Pen][AEF][2Nal6(Ph4(NMorph))][Thp]EN[Thp]-NH2 (disulfide 2-7 (inferred)) [SEQ ID NO: 432] | ≥ 0.1 µM |  |
| Ac-[dR][Pen]NT[Trp(7-Me)]K(Ac)[Pen][AEF][6F2Nal][Thp]EN[3Pal][Sar]-NH2 (disulfide 2-7 (inferred)) [SEQ ID NO: 407, listing 1 of 2 here] | < 0.01 µM |  |
| Ac-[dR][Pen]NT[Trp(7-Me)]K(Ac)[Pen][TMAPF][2Nal(6-OH)][Thp]EN[3Pal][Sar]-NH2 (disulfide 2-7 (inferred)) [SEQ ID NO: 59, listing 2 of 2 here] | < 0.01 µM |  |
| Ac-[dR][Pen]NT[Trp(7-Me)]K(Ac)[Pen][AEF][2Nal(6-OH)][Thp]EN[3Pal][Sar]K([PEG2′-PEG2′-γGlu-C18OH])-NH2 (disulfide 2-7 (inferred)) [SEQ ID NO: 282] |  | < 1 nM |
| Ac-[dR][Pen]NT[Trp(7-Me)]K(Ac)[Pen][AEF][2Nal(6-OH)][Thp]EN[3Pal][Sar]K(PEG2NMePEG2NMegENMeCl8Tetrazole)-NH2 (disulfide 2-7 (inferred); reading uncertain) [SEQ ID NO: 115] |  | < 1 nM |
| Ac-[Pen]NT[Trp(7-Me)]K(Ac)[Pen][AEF][2Nal(6-OH)][Thp]K([PEG2′-PEG2′-γGlu-C18OH])N[3Pal][Sar]-NH2 (disulfide 1-6 (inferred)) [SEQ ID NO: 273] |  | < 0.1 nM |
| Ac-[dR][Pen]NT[Trp(7-Me)]K(Ac)[Pen][AEF][2Nal(6-OH)][Thp]EN[3Pal][Sar]-NH2 (disulfide 2-7 (inferred)) [SEQ ID NO: 442, listing 2 of 2 here] | < 0.01 µM |  |
| Ac-[dR][Pen]NT[Trp(7-(3-AcNH-Ph))]K(Ac)[Pen][AEF(G)][2Nal(6-OH)][Thp]EN[3Pal(5-Me)][Sar]-NH2 (disulfide 2-7 (inferred)) [SEQ ID NO: 15, listing 2 of 2 here] |  | < 0.01 nM |
| Ac-[dR][Pen]NT[Trp(7-Me)]K(Ac)[Pen][AEF][6Br2Nal][Thp]EN[Thp]-NH2 (disulfide 2-7 (inferred)) [SEQ ID NO: 444, listing 2 of 2 here] | ≥ 0.1 µM |  |
| Ac-[Pen]NT[Trp(7-Me)]K(Ac)[Pen][AEF][2Nal(6-OH)][Thp]EN[3Pal][Sar]-NH2 (disulfide 1-6 (inferred)) [SEQ ID NO: 428, listing 2 of 2 here] |  | < 0.01 nM |
| B5 | < 0.01 µM |  |
| Ac-[dR][Pen]NT[Trp(7-Me)]K(Ac)[Pen][AEF][6F2Nal][Thp]EN[3Pal][Sar]-NH2 (disulfide 2-7 (inferred)) [SEQ ID NO: 407, listing 2 of 2 here] |  | < 0.1 nM |
| Ac-[dR][Pen]NT[Trp(7-(3-AcNH-Ph))]K(Ac)[Pen][AEF][2Nal(6-OH)][Thp]EN[3Pal][Sar]-NH2 (disulfide 2-7 (inferred)) [SEQ ID NO: 287, listing 2 of 2 here] | < 0.01 µM |  |
| Ac-[Pen]NT[Trp(7-Me)]K(Ac)[Pen][AEF][2Nal(6-OH)][Thp]EN[3Pal][Sar]K([PEG2′-PEG2′-γGlu-C18OH])-NH2 (disulfide 1-6 (inferred)) [SEQ ID NO: 283] |  | < 1 nM |
